Assay [1] has as its target GAL4 DNA-binding domain alone (Saccharomyces cerevisiae (strain ATCC …, UniProt P04386)). As to the kind of experiment: yeast two-hybrid. An excerpt:
However, interaction between 14-3-3β and the bcr gene product, which itself has endogenous kinase activity, was detected.
The Raf-1 coding sequence was isolated by PCR amplification of a human placental cDNA library purchased from Stratagene (San Diego, Calif.) as described by MacDonald et al. (1993) *Mol. Cell Biol.* 13: 16.15. For use in the two hybrid screen (Chien et al. (1991) *Proc. Natl. Acad. Sci. USA* 88: 9578), the Raf-1 gene was fused to sequence encoding the GAL4-DNA binding domain by digesting pGEM Raf-I with NcoI and SacI to liberate the Raf-1 coding sequence and subcloning into the pGBT8 plasmid (Hannon et al. (1993) *Genes & Dev.* 7: 2378) digested also with Nco I and Sac I. Yeast (*S. cerevisiae*) of strain YGH-1 (Hannon et al. (1993) op.cit.) were transformed with pGBT8 Raf1, and the resultant strain was transformed with a HeLa cell cDNA library encoding fusions with the GAL4 activation domain in the plasmid pGAD (Chien et al. (1991) *Proc. Natl. Acad. Sci.* (USA) 88: 9578). The YGH-1 strain contains two reported genes, HIS3 and lacZ, which allow selection of cDNAs encoding proteins capable of interacting with the gene of interest, in this case, Raf-1. The first selection was by the ability to grow on plates lacking histidine. Positive colonies were then tested for production of β-galactodidase using X-gal as substrate as described by Hannon et al. op.cit. […]

Assay [2] concerns the target full-length Raf-1 (wildtype Raf) (human). Kind of assay: cell-based or functional assay.
For assay [3], the target named is Ras-binding domain of Raf (aa51-aa131) (human). Kind of assay: ELISA.

B1: human P1A2 (14-3-3ζ) fused with GAL4 activation domain (other)
chain: MDKNELVQKAKLAEQAERYDDMAACMKSVTEQGAELSNEERNLLSVAYKNVVGARRSSWRVVSSIEQKTEGAEKKQQMAREYREKIETELRDICNDVLSLLEKFLIPNASQAESKVFYLKMKGDYYRYLAEVAAGDDKKGIVDQSQQAYQEAFEISKKEMQPTHPIRLGLALNFSVFYYEILNSPEKACSLAKTAFDEAIAELDTLSEESYKDSTLIMQLLRDNLTLWTSDTQGDEAEAGEGGEN
On to B1, for which the binding result in assay [1] is on record as “no binding”.

B2: 14-3-3ζ (not fused to GAL4) (other)
chain: MDKNELVQKAKLAEQAERYDDMAACMKSVTEQGAELSNEERNLLSVAYKNVVGARRSSWRVVSSIEQKTEGAEKKQQMAREYREKIETELRDICNDVLSLLEKFLIPNASQAESKVFYLKMKGDYYRYLAEVAAGDDKKGIVDQSQQAYQEAFEISKKEMQPTHPIRLGLALNFSVFYYEILNSPEKACSLAKTAFDEAIAELDTLSEESYKDSTLIMQLLRDNLTLWTSDTQGDEAEAGEGGEN
As to B2, in assay [2], the “Raf activity in cells containing the 14-3-3 proteins” value was 2 fold increase over background.

B3: human HS1 1054 (14-3-3β) fused with GAL4 activation domain (other)
chain: MTMDKSELVQKAKLAEQAERYDDMAAAMKAVTEQGHELSNEERNLLSVAYKNVVGARRSSWRVISSIEQKTERNEKKQQMGKEYREKIEAELQDICNDVLELLDKYLIPNATQPESKVFYLKMKGDYFRYLSEVASGDNKQTTVSNSQQAYQEAFEISKKEMQPTHPIRLGLALNFSVFYYEILNSPEKACSLAKTAFDEAIAELDTLNEESYKDSTLIMQLLRDNLTLWTSENQGDEGDAGEGEN
For B3, in assay [1], the binding result is on record as “no binding”.

B4: 14-3-3β (not fused to GAL4) (other)
chain: MTMDKSELVQKAKLAEQAERYDDMAAAMKAVTEQGHELSNEERNLLSVAYKNVVGARRSSWRVISSIEQKTERNEKKQQMGKEYREKIEAELQDICNDVLELLDKYLIPNATQPESKVFYLKMKGDYFRYLSEVASGDNKQTTVSNSQQAYQEAFEISKKEMQPTHPIRLGLALNFSVFYYEILNSPEKACSLAKTAFDEAIAELDTLNEESYKDSTLIMQLLRDNLTLWTSENQGDEGDAGEGEN
With B4, the binding result in assay [3] is given as “no binding”. Further, in assay [2], the “Raf activity in cells containing the 14-3-3 proteins” value is 2 fold increase over background.
